Laboratory results published in the supplement of paper PMC10126150.
± gives the standard deviation of the averaged measurements.

test system: ATP; test: switch fluorescence ratio, 500 uM ATP over buffer (Cy3 cluster intensity, sum of 5 cycles each) (fold (ratio)); higher = stronger signal-on switching upon ATP binding; sequences stand for … in TCGTCGGCAGCGTCAGATGTGTATAAGAGACAGTTTTTTTTTTTTTTTTTTTTTTTTT…TC; conditions: aptamer strand: ATP DNA aptamer (quencher-CACCTGGGGGAGTATTGCGGAGGAAGG + anchor), 100 nM annealed; ATP concentration: 500 uM
Outline: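 Per cluster, summed Cy3 intensity from the target cycles was divided by that from the buffer cycles to give the fluorescence ratio, then averaged per switch-domain sequence. Clusters outside 100-1000 RFU were excluded. The Cy3-labelled switching-strand clusters, on a modified Illumina MiSeq flow-cell, were annealed to 100 nM quencher-labelled ATP aptamer and imaged in selection buffer, then after 15 min with 500 uM ATP at 22 °C, for five cycles with NaOH stripping and re-annealing between them.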
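Further: ATP exposure 15 min at 22 °C before imaging.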

Sequence | switch fluorescence ratio
CTATCTTCGG | 0.974 ± 0.038
TGGCAACACC | 1.94 ± 1.2
GGTTAGGCGC | 0.993 ± 0.012
TGTTGGTAAA | 1.02 ± 0.024
GATGATTTTA | 1.02 ± 0.042
TCCTGAGTAA | 1.55 ± 0.25
GTGTTTGGTG | 1 ± 0.032
ATCAGAACAA | 1.01 ± 0.0069
CACGTAGTAA | 1.13 ± 0.03
TGCTTGGCTA | 0.98 ± 0.033
ACAGATTTAG | 0.972 ± 0.014
ACTCCTCGAC | 2.71 ± 0.41
CCAGAAAAGG | 1.31 ± 0.47
GAGATGGGTA | 0.997 ± 0.027
TCAGCGTGTG | 1.0181 ± 0.00046
AGTATCTTAC | 1.03 ± 0.025
TTAATTGGTT | 0.997 ± 0.031
GGGTCCACAG | 1.01 ± 0.04
GACAGCAGGG | 1.03 ± 0.025
GTTTTTAGGC | 1.02 ± 0.094
GGGAAAAATC | 2.06 ± 1.5
AACTGGGGGA | 1.06 ± 0.054
AATCTTTATT | 1.008 ± 0.0018
TCATCTTAAT | 0.992 ± 0.044
CAGGGGGGTC | 1.022 ± 0.0065

Sequence | switch fluorescence ratio
TCATTCTAGG | 1.009 ± 0.0031
ATAGAGAGAG | 1.02 ± 0.014
TCGAGCTAAT | 1.41 ± 0.11
ACTTGCGGGC | 1.03 ± 0.021
TGGGTTGTCG | 1.02 ± 0.016
GGTGTAGGTG | 0.9851 ± 0.0098
ACTTCAGGGG | 1.13 ± 0.1
TATACACGGA | 1.08 ± 0.015
GAGGTTCTAT | 1.0012 ± 0.00094
ATTCTCTGGT | 1.01 ± 0.076
AAACCTCTGG | 0.965 ± 0.02
TGCTTGCTTT | 1.004 ± 0.01
AAAGGTGGCA | 1 ± 0.017
AAGTTCTGGA | 0.976 ± 0.07
TGTGTTTTT | 0.992 ± 0.038
ATCAGATAGC | 0.977 ± 0.018
CGGTGGGCGA | 0.987 ± 0.048
GGATTTAGTA | 1.01 ± 0.034
TTTTTGTAGA | 1.01 ± 0.022
TAAGTATGTT | 1.002 ± 0.0031
GGTCTAGATT | 0.988 ± 0.013
TGGGTCAATA | 1.03 ± 0.054
TTAGGTGTTA | 1.03 ± 0.022
AAGTTGTATG | 0.9787 ± 0.0025
ATGGCCTATA | 1.01 ± 0.028

Sequence | switch fluorescence ratio
CGCATGTAAC | 3.43 ± 0.81
CAAGGTTTAC | 0.9881 ± 0.00047
TCAACCGTTT | 1.02 ± 0.065
GGGGGGTCT | 1.09 ± 0.051
GCGCTAGGTG | 2.19 ± 0.12
TTTTCCATTG | 1.01 ± 0.021
TCGTGTTAGG | 1.02 ± 0.022
GTATTTGAGT | 0.991 ± 0.0031
TATTGGGGAA | 0.978 ± 0.01
ATATGGTGAT | 1 ± 0.057
CGATAACGTC | 0.992 ± 0.011
TATGGGTTGG | 1.02 ± 0.04
CATTTTGGGA | 0.979 ± 0.03
CTGGTTTGGA | 1 ± 0.022
CTTGGCATCT | 1.01 ± 0.033
GGGGGTGAAT | 1 ± 0.037
TCATTTAGGT | 0.967 ± 0.013
CAGTCTGCTC | 1.05 ± 0.03
GAATTTAGCA | 1.02 ± 0.031
CGAGGGGTTG | 1 ± 0.04
TATTAATTC | 0.972 ± 0.056
TTGATGCGGT | 1.04 ± 0.042
CGGGTGGCGA | 1.02 ± 0.081
TTTCAAGTGC | 1.03 ± 0.064
GGGACGTGTG | 1.007 ± 0.0068

Sequence | switch fluorescence ratio
GTTGGGTCCC | 0.9857 ± 0.0069
AAAGATATAA | 1.03 ± 0.036
CATTGTTATC | 1.08 ± 0.085
ACGAAGATTT | 1.03 ± 0.066
CGGCCGAGGA | 0.978 ± 0.01
GAATGTGCAT | 1.05 ± 0.047
ATGAAGGGGT | 0.959 ± 0.033
ACACACCAGG | 2.98 ± 0.18
TTACATTTGG | 0.9846 ± 0.0036
ACCGGGCGCC | 0.967 ± 0.027
GAGGGTCGGG | 0.988 ± 0.033
CGCATGTTTT | 1.06 ± 0.1
TGGCAATGGG | 1.05 ± 0.017
CCTTTGTGAT | 1.499 ± 0.0089
TTCTATGGTG | 1 ± 0.04
TGTGATTTGT | 0.9702 ± 0.0032
ATCAGTGAGA | 1.03 ± 0.032
AATAGAAAAT | 0.97 ± 0.061
CAAATAACGG | 1 ± 0.023
TTGGGTTCCC | 1.01 ± 0.05
GCAAAAGGAA | 0.975 ± 0.022
AACAGGGAAG | 1.02 ± 0.012
AAGTACTATC | 1.26 ± 0.025
ATTCGGTTGT | 1.001 ± 0.0059
AAATAACGGT | 1.16 ± 0.21
